The results in this text go back to PMC11108873, “Emergence of a clinical Salmonella enterica serovar 1,4,[5], 12: i:-isolate, ST3606, in China with susceptibility decrease to ceftazidime-avibactam carrying a novel blaCTX-M-261 variant and a blaNDM-5” (European Journal of Clinical Microbiology & Infectious …, 2024).

What all share (test): purified protein
Common to all, as to conditions: 50 mM sodium phosphate pH 7.0, 30 °C, BSA added to enzyme dilution

For data set [1], the system named is CC(C)(O/N=C(\C(=O)N[C@@H]1C(=O)N2C(C(=O)[O-])=C(C[n+]3ccccc3)CS[C@H]12)c1csc(N)n1)C(=O)O.
Data set [2] relates to CO/N=C(\C(=O)N[C@@H]1C(=O)N2C(C(=O)[O-])=C(C[N+]3(C)CCCC3)CS[C@H]12)c1csc(N)n1.
Data set [3] has as its system CO/N=C(\C(=O)N[C@@H]1C(=O)N2C(C(=O)O)=C(CSc3nc(=O)c(=O)[nH]n3C)CS[C@H]12)c1csc(N)n1.
The subject of data set [4] is CO/N=C(\C(=O)N[C@@H]1C(=O)N2C(C(=O)O)=C(COC(C)=O)CS[C@H]12)c1csc(N)n1.

Turning to CTX-M-1 (Escherichia coli), the Km came to 328.8 ± 42 µM in data set [1], 146 ± 21.3 µM in data set [2], 10.5 ± 1.8 µM in data set [3] and 17.8 ± 2.5 µM in data set [4]. Also, the kcat in data set [1] worked out at 43.6 ± 3.7 s⁻¹; in data set [2], 27.9 ± 8.6 s⁻¹; in data set [3], 105 ± 4.3 s⁻¹; in data set [4], 111 ± 25 s⁻¹. Further, the kcat/Km is 130000 M⁻¹ s⁻¹ in data set [1], 190000 M⁻¹ s⁻¹ in data set [2], 9.98e+06 M⁻¹ s⁻¹ in data set [3] and 6.2e+06 M⁻¹ s⁻¹ in data set [4].
